Assay results published in patent US20260055191A1.

Molecular target: purified total human IgA (human) (UniProt P11912)
Assay: cell-based or functional assay

Sequence of UniProt P11912 (P11912 whole entry): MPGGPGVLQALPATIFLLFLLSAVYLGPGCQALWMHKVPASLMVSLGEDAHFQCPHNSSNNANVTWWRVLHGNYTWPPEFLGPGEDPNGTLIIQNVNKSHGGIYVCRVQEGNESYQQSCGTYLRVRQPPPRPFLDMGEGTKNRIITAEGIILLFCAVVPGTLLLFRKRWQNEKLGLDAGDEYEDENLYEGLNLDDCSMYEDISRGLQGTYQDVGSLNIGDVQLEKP

percent of human IgA target remaining in rat serum (total free+bound human IgA by ELISA) 6 hours after subcutaneous administration of 2.0 mg: < 5%
B1: sCD89 glycoengineered polypeptide (receptor)
chain: QEGDFPMPFISAKSSPVIPLDGSVKIQCQAIREAYLTQLMIIKNSTYREIGRRLKFWNETDPEFVIDHMDANKAGRYQCQYRIGHYRFRYSDTLELVVTGLYGKPFLSADRGLVLMPGEQISLTCSSAHIPFDRFSLAKEGELSLPQHQSGEHPAQFSLGPVDLQVSGIYRCYGWYQRSPYLWSFPSNALELVVTGGGGANSTAPAPAPAHHHHHHHHHH
modifications: A2GalNAc2 N-glycans (82.8% A2GalNAc2) at three N-glycosylation sites: native N65 and N79 (numbering according to Uniprot P24071) and the site in the C-terminal glycotag; >95% all occupied
